Measurements: US20250186614A1, “COMPACT DRUG RESPONSIVE DOMAINS FOR REGULATION OF FUNCTION/ABUNDANCE AND DELIVERY OF POLYPEPTIDE PAYLOADS” (OBSIDIAN THERAPEUTICS, INC., priority 2022, published 2025)
Numbering of substitutions follows the chain as printed. In names and notes the source's numbering stands. Where two headings read alike, the source gives them in different places.

B1: FKBP-233: FKBP13 DRD-AcGFP construct of Table 10 (protein)
chain: HCPIKSRKGDVLHMHYTGKLEDGTEFDSSLPRNQPFVFSLGTGEVIKGWTQGLLGMCEGEKRKLVIPSELGYGERGWPPKIPGGATLVFEVELLKIER
modifications: Description of sequence: Construct Name: FKBP-233; Mutation(s): Q72R Q84E A117W DRD D90T
B2: FKBP-242 (protein)
chain: B1 chain with T50D, P78S
modifications: Description of sequence: Construct Name: FKBP-242; Mutation(s): Q72R Q84E A117W DRD P118S
B3: FKBP-243: FKBP13 DRD-AcGFP construct of Table 10 (protein)
chain: B1 chain with V45R, T50D, P78S
modifications: Description of sequence: Construct Name: FKBP-243; Mutation(s): Q72R Q84E A117W V85R DRD P118S
B4: FKBP-244: FKBP13 DRD-AcGFP construct of Table 10 (protein)
chain: B1 chain with M14A, V45R, T50D, P78S
modifications: Description of sequence: Construct Name: FKBP-244; Mutation(s): Q72R Q84E A117W V85R DRD P118S M54A
B5: FKBP-248 (protein)
chain: B1 chain with S28D, T50D
modifications: Description of sequence: Construct Name: FKBP-248; Mutation(s): Q72R Q84E A117W DRD S68D
B6: FKBP-250 (protein)
chain: B1 chain with T50D, E90F
modifications: Description of sequence: Construct Name: FKBP-250; Mutation(s): Q72R Q84E A117W DRD E130F
B7: FKBP-173 (protein)
chain: B1 chain with M14A, T50D, L93G
modifications: Description of sequence: Construct Name: FKBP-173; Mutation(s): Q72R Q84E A117W DRD M54A L133G
B8: FKBP-247 (protein)
chain: B1 chain with M14A, S29H, V45R, T50D
modifications: Description of sequence: Construct Name: FKBP-247; Mutation(s): Q72R Q84E A117W V85R DRD S69H M54A
B9: FKBP-237 (protein)
chain: B1 chain with V45R, T50D, G73N
modifications: Description of sequence: Construct Name: FKBP-237; Mutation(s): Q72R Q84E A117W V85R DRD G113N
B10: FKBP-246 (protein)
chain: B1 chain with S29H, V45R, T50D
modifications: Description of sequence: Construct Name: FKBP-246; Mutation(s): Q72R Q84E A117W V85R DRD S69H
B11: FKBP-245 (protein)
chain: B1 chain with S29H, T50D
modifications: Description of sequence: Construct Name: FKBP-245; Mutation(s): Q72R Q84E A117W DRD S69H
B12: FKBP-175 (protein)
chain: B1 chain with D10A, M14A, T17I, T50D, I96L
modifications: Description of sequence: Construct Name: FKBP-175; Mutation(s): Q72R Q84E A117W DRD M54A D50L T57I I136L
B13: FKBP-174 (protein)
chain: B1 chain with S6G, M14A, T50D, V91G
modifications: Description of sequence: Construct Name: FKBP-174; Mutation(s): Q72R Q84E A117W DRD M54A S36G V131G
B14: FKBP-236 (protein)
chain: B1 chain with T50D, G73N
modifications: Description of sequence: Construct Name: FKBP-236; Mutation(s): Q72R Q84E A117W DRD G113N
B15: FKBP-165 (protein)
chain: B1 chain with M14A, V45R, T50D, P79V
modifications: Description of sequence: Construct Name: FKBP-165; Mutation(s): Q72R Q84E A117W DRD M54A P119V V85R
B16: FKBP-241 (protein)
chain: B1 chain with M14A, E21Y, V45R, T50D
modifications: Description of sequence: Construct Name: FKBP-241; Mutation(s): Q72R Q84E A117W V85R DRD E61Y M54A
B17: FKBP-235 (protein)
chain: B1 chain with M14A, V45R
modifications: Description of sequence: Construct Name: FKBP-235; Mutation(s): Q72R Q84E A117W V85R DRD D90T M54A
B18: FKBP-239 (protein)
chain: B1 chain with E21Y, T50D
modifications: Description of sequence: Construct Name: FKBP-239; Mutation(s): Q72R Q84E A117W DRD E61Y
B19: FKBP-255: FKBP13 DRD-AcGFP construct of Table 10 (protein)
chain: B1 chain with V45R, T50D, G59R
modifications: Description of sequence: Construct Name: FKBP-255; Mutation(s): Q72R Q84E A117W V85R DRD G99R
B20: FKBP-234 (protein)
chain: B1 chain with V45R
modifications: Description of sequence: Construct Name: FKBP-234; Mutation(s): Q72R Q84E A117W V85R DRD D90T
B21: FKBP-252 (protein)
chain: B1 chain with T50D, I96P
modifications: Description of sequence: Construct Name: FKBP-252; Mutation(s): Q72R Q84E A117W DRD I136P
B22: FKBP-176 (protein)
chain: B1 chain with M14A, T50D, G76E
modifications: Description of sequence: Construct Name: FKBP-176; Mutation(s): Q72R Q84E A117W DRD M54A G116E
B23: FKBP-249 (protein)
chain: B1 chain with S28D, V45R, T50D
modifications: Description of sequence: Construct Name: FKBP-249; Mutation(s): Q72R Q84E A117W V85R DRD S68D
B24: FKBP-253 (protein)
chain: B1 chain with V45R, T50D, I96P
modifications: Description of sequence: Construct Name: FKBP-253; Mutation(s): Q72R Q84E A117W V85R DRD I136P
B25: FKBP-238 (protein)
chain: B1 chain with M14A, V45R, T50D, G73N
modifications: Description of sequence: Construct Name: FKBP-238; Mutation(s): Q72R Q84E A117W V85R DRD G113N M54A
B26: FKBP-254 (protein)
chain: B1 chain with T50D, G59R
modifications: Description of sequence: Construct Name: FKBP-254; Mutation(s): Q72R Q84E A117W DRD G99R
B27: FKBP-240: FKBP13 DRD-AcGFP construct of Table 10 (protein)
chain: B1 chain with E21Y, V45R, T50D
modifications: Description of sequence: Construct Name: FKBP-240; Mutation(s): Q72R Q84E A117W V85R DRD E61Y

Test: Example 4: dose response of FKBP constructs 160-255, Ec50, Ec90 and fold change (raw and normalized to mCherry)
Assay type: cell-based
Conditions: for FC (fold change): fold change during initial analysis
Description: Additional experiments were performed for constructs FKBP-160-292.

[1] = FKBP constructs 160-255, not normalized, read-out: EC90
[2] = normalized to mCherry, read-out: EC90 (Norm)

Molecule	EC90 [1] [nM]	FC (fold change)	EC90 [2] [nM]
B1	272	47.2	335
B2	466	24.4	539
B3	125	37.1	127
B4	307	51.2	328
B5	1800	50.1	1880
B6	101	22.0	114
B7	–	4	–
B8	2810	35.0	2950
B9	550	24.1	484
B10	1530	30.4	1520
B11	5830	40.6	5870
B12	–	7.25	–
B13	–	0.9	–
B14	1810	39.1	1960
B15	970	47.6	984
B16	221	43.9	222
B17	9980	23.5	11100
B18	223	31.1	243
B19	101	33.0	101
B20	8760	23.5	12100
B21	–	1.3	–
B22	–	6.8	–
B23	472	33.7	494
B24	–	2.3	–
B25	846	26.8	863
B26	369	35.6	373
B27	111	43.7	111
